Results as given in paper doi:10.1101/2025.09.09.675108 (bioRxiv, 2025).
Non-standard residues stand in square brackets, D forms with d. *: point of attachment. FITC = O=C1OC2(c3ccc(O)cc3Oc3cc(O)ccc32)c2ccc(NC(=S)*)cc21; pT = C[C@@H](OP(=O)(O)O)[C@H](N)C(=O)O

Key:
Assay in all cases: fluorescence polarisation
[1] = molecular target: DDIAS pS676 peptide (FITC-SYDAp…-NH2)
[2] = molecular target: DDIAS pS993 peptide (FITC-ETRSAWpSPELFS-NH2)
[3] = molecular target: recombinant TOPBP1 BRCT7/8 domain (amino acids 1264-1493), WT (UniProt Q92547 1264-1493)
Sequence of recombinant TOPBP1 BRCT7/8 domain (amino acids 1264-1493), WT (Q92547 1264-1493): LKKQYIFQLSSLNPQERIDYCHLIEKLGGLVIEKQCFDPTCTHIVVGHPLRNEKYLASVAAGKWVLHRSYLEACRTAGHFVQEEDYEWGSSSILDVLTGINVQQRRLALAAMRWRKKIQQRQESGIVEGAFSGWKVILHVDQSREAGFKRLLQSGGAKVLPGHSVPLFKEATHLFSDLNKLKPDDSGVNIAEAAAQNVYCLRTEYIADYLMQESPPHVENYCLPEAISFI

Row | Molecule | Kd [1] [nM] | Kd [2] [nM] | Kd [3] [nM]
1 | recombinant TOPBP1 BRCT7/8 domain (amino acids 1264-1493), WT (from UniProt Q92547 1264-1493) (domain or fragment) | 300 | 1200 | –
2 | {FITC}-ESIYF[pT]PELYDPEDT-NH2 [pBRIP1 peptide (FITC-ESIYFpTPELYDPEDT-NH2)] | – | – | 200
